The source of these data is patent publication US20070218001A1 (BIOTECH STUDIO, published 2007).

Values joined by “and” are separate entries in the source; they are usually repeats but may differ in a detail not shown here. Identical values can stand only once. Where no end group is shown, it is not given here. The star is where a group is joined. Biotin = O=C1N[C@H]2[C@H](CS[C@H]2CCCCC(=O)*)N1

The target in assay [1] is biotin-… peptide. The experiment in a line: phage ELISA, biotinylated peptide on streptavidin-coated wells, anti-M13 HRP and ABTS, 35 min at room temperature.
Assay [2] addresses T1, recombinant phage displaying CASK PDZ domain (PDZ domain of human hCASK, hCASK-PDZopt in pCANTAB5E) (human, UniProt O14936 480-577).
T1 construct: also called wildtype hCASK-PDZ
T1 sequence: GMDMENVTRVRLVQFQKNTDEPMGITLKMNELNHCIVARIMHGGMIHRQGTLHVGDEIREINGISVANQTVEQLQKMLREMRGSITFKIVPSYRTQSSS
The experiment in a line: phage ELISA.

For the molecule “phage-displayed third PDZ domain of human Dlg1 (in pCANTAB5E)”, in assay [1], the OD405 is 0.51 OD405 and 0.46 OD405.

B1: biotin-QKAPTKEFYA peptide (peptide)
peptide: Biotin-QKAPTKEFYA
notes: also called cognate peptide ligand of hCASK PDZ; C-terminus of syndecan-2
For B1, in assay [2], the binding result was “binds”.
